This note sets out measurements from PMC7676268.

For the experiment, the target named is SARS-CoV-2 glycoprotein S (SARS-CoV-2) (UniProt P0DTC2). Kind of experiment: cryo-EM structure; in situ cryo-electron tomography on cryo-FIB milled lamellae of chemically fixed infected cells; subtomogram average of 219 S trimers from six tomograms of intracellular virions; C3 symmetry applied after it was revealed without being imposed.

Consider “SARS-CoV-2 glycoprotein S (from UniProt P0DTC2 14-1273) (natural protein)”, for which the stoichiometry N (usually the number of molecules, sites or subunits per partner or assembly) was found to be 3.
